For one variant, percent of parent results are on record in article PMC3900104.

First the molecules themselves.
B1: Myc-tagged DISC1, in COS7 [human] / FLAG-tagged TRAK1 (trafficking-protein-Kinesin-binding-1), aa 2-953, in COS7 [human] (parent)
chain 1: MPGGGPQGAPAAAGGGGVSHRAGSRDCLPPAACFRRRRLARRPGYMRSSTGPGIGFLSPAVGTLFRFPGGVSGEESHHSESRARQCGLDSRGLLVRSPVSKSAAAPTVTSVRGTSAHFGIQLRGGTRLPDRLSWPCGPGSAGWQQEFAAMDSSETLDASWEAACSDGARRVRAAGSLPSAELSSNSCSPGCGPEVPPTPPGSHSAFTSSFSFIRLSLGSAGERGEAEGCPPSREAESHCQSPQEMGAKAASLDGPHEDPRCLSRPFSLLATRVSADLAQAARNSSRPERDMHSLPDMDPGSSSSLDPSLAGCGGDGSSGSGDAHSWDTLLRKWEPVLRDCLLRNRRQMEVISLRLKLQKLQEDAVENDDYDKAETLQQRLEDLEQEKISLHFQLPSRQPALSSFLGHLAAQVQAALRRGATQQASGDDTHTPLRMEPRLLEPTAQDSLHVSITRRDWLLQEKQQLQKEIEALQARMFVLEAKDQQLRREIEEQEQQLQWQGCDLTPLVGQLSLGQLQEVSKALQDTLASAGQIPFHAEPPETIRSLQERIKSLNLSLKEITTKVCMSEKFCSTLRKKVNDIETQLPALLEAKMHAISGNHFWTAKDLTEEIRSLTSEREGLEGLLSKLLVLSSRNVKKLGSVKEDYNRLRREVEHQETAYETSVKENTMKYMETLKNKLCSCKCPLLGKVWEADLEACRLLIQSLQLQEARGSLSVEDERQMDDLEGAAPPIPPRLHSEDKRKTPLKVLEEWKTHLIPSLHCAGGEQKEESYILSAELGEKCEDIGKKLLYLEDQLHTAIHSHDEDLIQSLRRELQMVKETLQAMILQLQPAKEAGEREAAASCMTAGVHEAQA
chain 2: ALVFQFGQPVRAQPLPGLCHGKLIRTNACDVCNSTDLPEVEIISLLEEQLPHYKLRADTIYGYDHDDWLHTPLISPDANIDLTTEQIEETLKYFLLCAERVGQMTKTYNDIDAVTRLLEEKERDLELAARIGQSLLKKNKTLTERNELLEEQVEHIREEVSQLRHELSMKDELLQFYTSAAEESEPESVCSTPLKRNESSSSVQNYFHLDSLQKKLKDLEEENVVLRSEASQLKTETITYEEKEQQLVNDCVKELRDANVQIASISEELAKKTEDAARQQEEITHLLSQIVDLQKKAKACAVENEELVQHLGAAKDAQRQLTAELRELEDKYAECMEMLHEAQEELKNLRNKTMPNTTSRRYHSLGLFPMDSLAAEIEGTMRKELQLEEAESPDITHQKRVFETVRNINQVVKQRSLTPSPMNIPGSNQSSAMNSLLSSCVSTPRSSFYGSDIGNVVLDNKTNSIILETEAADLGNDERSKKPGTPGTPGSHDLETALRRLSLRRENYLSERRFFEEEQERKLQELAEKGELRSGSLTPTESIMSLGTHSRFSEFTGFSGMSFSSRSYLPEKLQIVKPLEGSATLHHWQQLAQPHLGGILDPRPGVVTKGFRTLDVDLDEVYCLNDFEEDDTGDHISLPRLATSTPVQHPETSAHHPGKCMSQTNSTFTFTTCRILHPSDELTRVTPSLNSAPTPACGSTSHLKSTPVATPCTPRRLSLAESFTNTRESTTTMSTSLGLVWLLKERGISAAVYDPQSWDRAGRGSLLHSYTPKMAVIPSTPPNSPMQTPTSSPPSFEFKCTSPPYDNFLASKPASSILREVREKNVRSSESQTDVSVSNLNLVDKVRRFGVAKVVNSGRAHVPTLTEEQGPLLCGPPGPAPALVPRGLVPEGLPLRCPTVTSAIGGLQLNSGIRRNRSFPTMVGSSMQMKAPVTLTSGILMGAKLSKQTSLR

In the assay the parent is B1. Kind of assay: co-immunoprecipitation (IP with Myc antibody, WB anti-FLAG), quantified. The note with it: with FLAG-tagged TRAK1 (trafficking-protein-Kinesin-binding-1), COS7 cells, n = 3 independent transfections, parent: 100, read off a plot.
With chain 1 R35A R36A R37A R38A R41A R42A R47A, the percent of parent was 43 % of DISC1.
